The target of data set [1] is T1, Sen1Hel (crystal construct, loop 1,471-1,538 removed) (Saccharomyces cerevisiae, UniProt Q00416, DEL1471-1538).
T1 construct: gene SEN1; helicase core 1095-1904 with disordered loop 1471-1538 replaced by a (Gly-Ser)2 linker; C-terminal CPD-His8 tag cut off with 3C; expressed in E. coli; model covers 1096-1875
T1 sequence (Q00416 with tags, fused parts or gaps DEL1471-1538): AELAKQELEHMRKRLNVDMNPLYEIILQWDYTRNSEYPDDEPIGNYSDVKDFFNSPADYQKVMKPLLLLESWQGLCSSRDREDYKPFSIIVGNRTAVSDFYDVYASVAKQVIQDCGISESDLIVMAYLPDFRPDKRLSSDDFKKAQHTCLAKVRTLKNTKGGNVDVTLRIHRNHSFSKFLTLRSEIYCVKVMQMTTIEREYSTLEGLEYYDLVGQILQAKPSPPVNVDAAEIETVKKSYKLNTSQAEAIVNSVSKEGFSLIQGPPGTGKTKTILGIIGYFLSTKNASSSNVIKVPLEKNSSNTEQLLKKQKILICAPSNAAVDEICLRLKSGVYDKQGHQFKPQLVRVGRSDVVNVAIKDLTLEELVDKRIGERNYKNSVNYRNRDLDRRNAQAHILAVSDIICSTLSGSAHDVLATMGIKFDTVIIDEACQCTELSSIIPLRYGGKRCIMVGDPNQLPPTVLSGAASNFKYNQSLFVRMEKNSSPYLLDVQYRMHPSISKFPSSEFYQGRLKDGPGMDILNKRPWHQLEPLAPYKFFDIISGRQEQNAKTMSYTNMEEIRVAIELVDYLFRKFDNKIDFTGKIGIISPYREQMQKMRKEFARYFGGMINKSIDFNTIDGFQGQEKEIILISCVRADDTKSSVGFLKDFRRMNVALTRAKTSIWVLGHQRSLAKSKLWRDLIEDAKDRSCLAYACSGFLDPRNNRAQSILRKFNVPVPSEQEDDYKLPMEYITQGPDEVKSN
The data set can be described thus: X-ray crystal structure, […] A. The class given is binding. To be noted: 10-fold molar excess ADP, HEPES pH 7.5, 4 C; nucleotide site on RecA1, no RNA.

The target in another data set is T2, Sen1Hel (Saccharomyces cerevisiae, UniProt Q00416).
T2 construct: gene SEN1; helicase core 1095-1904, ~90 kDa; C-terminal CPD-His8 tag cut off with 3C protease; expressed in E. coli BL21 (DE3) STAR pRARE
T2 sequence (Q00416 1095-1904): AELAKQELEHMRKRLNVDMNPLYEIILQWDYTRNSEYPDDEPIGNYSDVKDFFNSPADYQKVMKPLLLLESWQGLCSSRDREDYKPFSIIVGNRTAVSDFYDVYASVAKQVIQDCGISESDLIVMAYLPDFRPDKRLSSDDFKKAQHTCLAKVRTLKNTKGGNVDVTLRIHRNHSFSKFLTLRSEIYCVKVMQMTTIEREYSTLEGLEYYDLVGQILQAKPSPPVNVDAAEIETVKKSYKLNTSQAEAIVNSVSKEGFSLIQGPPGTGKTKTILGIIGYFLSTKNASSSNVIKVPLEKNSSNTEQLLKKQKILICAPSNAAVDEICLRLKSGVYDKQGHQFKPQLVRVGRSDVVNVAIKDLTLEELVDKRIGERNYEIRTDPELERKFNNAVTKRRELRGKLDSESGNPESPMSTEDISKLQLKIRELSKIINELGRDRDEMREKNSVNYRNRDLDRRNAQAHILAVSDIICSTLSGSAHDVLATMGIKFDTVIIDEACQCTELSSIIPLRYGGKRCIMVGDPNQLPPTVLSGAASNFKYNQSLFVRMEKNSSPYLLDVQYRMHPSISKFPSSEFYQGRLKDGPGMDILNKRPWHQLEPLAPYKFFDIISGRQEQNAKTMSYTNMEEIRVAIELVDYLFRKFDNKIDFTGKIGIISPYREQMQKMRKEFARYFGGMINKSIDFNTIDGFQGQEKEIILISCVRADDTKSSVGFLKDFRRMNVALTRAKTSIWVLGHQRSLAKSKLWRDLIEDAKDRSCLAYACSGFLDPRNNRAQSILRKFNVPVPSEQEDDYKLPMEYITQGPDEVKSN
As to the kind of experiment: ATP hydrolysis, alpha-32P-ATP, thin-layer chromatography. Type of data set: biochemical. Particulars: polyU 50 ng/ul, 250 uM ATP, 1 mM MgCl2, pH 7.5, 28 C.

The target of the next data set is T3, Sen1Hel deltaLP (Saccharomyces cerevisiae, UniProt Q00416 1095-1904, del1461-1554).
T3 sequence: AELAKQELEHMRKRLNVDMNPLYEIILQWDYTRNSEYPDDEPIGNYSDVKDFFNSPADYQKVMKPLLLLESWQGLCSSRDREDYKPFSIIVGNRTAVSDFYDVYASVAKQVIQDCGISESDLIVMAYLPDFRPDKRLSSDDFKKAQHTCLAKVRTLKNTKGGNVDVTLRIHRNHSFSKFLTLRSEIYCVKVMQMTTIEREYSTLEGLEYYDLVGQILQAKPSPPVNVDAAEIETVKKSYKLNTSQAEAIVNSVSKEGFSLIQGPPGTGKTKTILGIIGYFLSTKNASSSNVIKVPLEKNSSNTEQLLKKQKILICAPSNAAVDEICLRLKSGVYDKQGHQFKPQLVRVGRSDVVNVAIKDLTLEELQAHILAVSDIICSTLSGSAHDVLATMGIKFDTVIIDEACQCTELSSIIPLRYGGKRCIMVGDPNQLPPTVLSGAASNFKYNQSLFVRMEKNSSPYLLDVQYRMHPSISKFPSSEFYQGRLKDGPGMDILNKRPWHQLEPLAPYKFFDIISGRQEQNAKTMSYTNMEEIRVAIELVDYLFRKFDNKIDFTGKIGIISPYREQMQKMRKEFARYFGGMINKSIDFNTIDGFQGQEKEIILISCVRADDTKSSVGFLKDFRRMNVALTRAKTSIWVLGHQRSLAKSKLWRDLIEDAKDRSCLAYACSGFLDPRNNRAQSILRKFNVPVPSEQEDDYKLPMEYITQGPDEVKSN
The data set can be described thus: EMSA; FA: 20 mM Hepes pH 7.5, 300 mM NaCl, 2 mM MgCl2, 1 mM DTT, 20 C, 10 nM RNA; EMSA: 2 nM RNA, 10-160 nM protein (buffer not in the material). To be noted: protein: recombinant; tags: C-terminal CPD-His8 removed by 3C; label: 5' fluorescent label. In general terms: Mobility shift assays separate free from complexed probe on a gel.

Data set [2] addresses T4, Sen1Hel (wild type) (Saccharomyces cerevisiae, UniProt Q00416 1095-1904).
T4 sequence: T2 sequence (Q00416 1095-1904)
As to the kind of experiment: EMSA; high-order complexes at high protein; FA: 20 mM Hepes pH 7.5, 300 mM NaCl, 2 mM MgCl2, 1 mM DTT, 20 C, 10 nM RNA; EMSA: 2 nM RNA, 10-160 nM protein (buffer not in the material). To be noted: protein: recombinant; tags: C-terminal CPD-His8 removed by 3C; label: 5' fluorescent label.

For data set [3], the target named is T4, Sen1Hel (wild type). The data set can be described thus: fluorescence anisotropy; 2 mM Mg2+; FA: 20 mM Hepes pH 7.5, 300 mM NaCl, 2 mM MgCl2, 1 mM DTT, 20 C, 10 nM RNA; EMSA: 2 nM RNA, 10-160 nM protein (buffer not in the material). Particulars: protein: recombinant; tags: C-terminal CPD-His8 removed by 3C; label: 5' fluorescein. On the technique in general: Polarisation of emitted light reports the rotation of a fluorescent probe.

In the next data set the target is T5, Sen1Hel P1622L (Saccharomyces cerevisiae, UniProt Q00416 1095-1904, P1622L).
T5 sequence: T2 sequence (Q00416 1095-1904) with P528L
The data set is described as above. Particulars: protein: recombinant; tags: C-terminal CPD-His8 removed by 3C; label: 5' fluorescein.

A further data set concerns the target T6, Sen1Hel N1413S (Saccharomyces cerevisiae, UniProt Q00416 1095-1904, N1413S).
T6 sequence: T2 sequence (Q00416 1095-1904) with N319S
The data set can be described thus: fluorescence anisotropy; 2 mM Mg2+; text says impaired; FA: 20 mM Hepes pH 7.5, 300 mM NaCl, 2 mM MgCl2, 1 mM DTT, 20 C, 10 nM RNA; EMSA: 2 nM RNA, 10-160 nM protein (buffer not in the material). To be noted: protein: recombinant; tags: C-terminal CPD-His8 removed by 3C; label: 5' fluorescein.

The record followed here is article PMC5452015, “Sen1 has unique structural features grafted on the architecture of the Upf1‐like helicase family” (The EMBO Journal, 2017).

Where a chain is given by its changes, count along the chain named.

Turning to `Nc1ncnc2c1ncn2[C@@H]1O[C@H](COP(=O)(O)OP(=O)(O)O)[C@@H](O)[C@H]1O` [ADP], the “X-ray crystal structure, 1.8 A” value in data set [1] is “We crystallized Sen1Hel in the presence of ADP and determined the structure”.

For the molecule `Nc1ncnc2c1ncn2[C@@H]1O[C@H](COP(=O)(O)OP(=O)(O)OP(=O)(O)O)[C@@H](O)[C@H]1O` [ATP], the “ATP hydrolysis, alpha-32P-ATP, thin-layer chromatography” value at Sen1Hel was “Sen1Hel showed levels of RNA‐dependent ATPase activity similar to those of full‐length Sen1”.

UUCAUUUCAGACCAGCACCCACUCACUACAACUCACGACCAGGC (ssRNA) [DL3316 44-mer RNA]: the binding result with Sen1Hel deltaLP and with Sen1Hel (wild type) [2] was “binds” throughout.

Usually Kd stands for the concentration at which binding is half-saturated. UUUCUAUUUAUUUUG (ssRNA) [ARE 15-mer AU-rich RNA]: the values for the Kd with Sen1Hel (wild type) [3] and in the data set with Sen1Hel P1622L were approximately 0.6 µM and approximately 6.4 µM, respectively. In addition, the binding result in the data set with Sen1Hel N1413S was “no binding”.
